Test results taken from publication PMC10694592.

Biological target: FITC-labeled 45-mer peptide derived from the C-terminal region of IKKβ
Experiment: fluorescence polarisation; fluorescence anisotropy binding assay with an FITC-labeled 45-mer peptide of IKKβ and bacterially expressed full-length NEMO proteins; conditions not told here (refs 13, 26)

Chain of full-length WT NEMO (aa 1-419), bacterially expressed (Q9Y6K9 whole entry, the tested form may be a part): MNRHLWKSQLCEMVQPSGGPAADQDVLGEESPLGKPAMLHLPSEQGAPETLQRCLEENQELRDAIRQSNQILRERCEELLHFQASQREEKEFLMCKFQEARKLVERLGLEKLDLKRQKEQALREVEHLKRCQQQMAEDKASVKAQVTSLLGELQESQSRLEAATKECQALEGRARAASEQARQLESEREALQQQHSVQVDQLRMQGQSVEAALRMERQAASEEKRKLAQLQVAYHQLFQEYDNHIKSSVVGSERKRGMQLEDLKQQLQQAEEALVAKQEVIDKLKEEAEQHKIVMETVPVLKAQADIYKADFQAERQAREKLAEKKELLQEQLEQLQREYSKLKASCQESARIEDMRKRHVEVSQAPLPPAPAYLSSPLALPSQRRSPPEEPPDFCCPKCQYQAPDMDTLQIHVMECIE

OPTN-IVD-NEMO (aa 1-419), bacterially expressed (from UniProt Q9Y6K9 1-419) (natural protein)
Kd: 33 nM

full-length WT NEMO (aa 1-419), bacterially expressed (from UniProt Q9Y6K9 1-419) (natural protein)
Kd: 4.7 nM
